T1: human RhoGDI (human, UniProt P52565 1-204)
T1 sequence (looked up): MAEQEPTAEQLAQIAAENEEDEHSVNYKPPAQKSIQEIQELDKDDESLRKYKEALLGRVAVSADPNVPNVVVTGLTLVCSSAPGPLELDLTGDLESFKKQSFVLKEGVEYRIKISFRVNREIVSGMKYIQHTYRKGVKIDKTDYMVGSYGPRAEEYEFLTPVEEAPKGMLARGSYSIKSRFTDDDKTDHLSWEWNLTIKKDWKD


Key:
Assay in all cases: ITC
[1] = molecular target: T2, ezrin FERM domain (residues 1-297) (human, UniProt P15311 1-297)
[2] = molecular target: T2, ezrin FERM domain (residues 1-297); remark: listed apart in the source
human RhoGDI = molecular target: T1, human RhoGDI

T2 sequence (P15311 1-297): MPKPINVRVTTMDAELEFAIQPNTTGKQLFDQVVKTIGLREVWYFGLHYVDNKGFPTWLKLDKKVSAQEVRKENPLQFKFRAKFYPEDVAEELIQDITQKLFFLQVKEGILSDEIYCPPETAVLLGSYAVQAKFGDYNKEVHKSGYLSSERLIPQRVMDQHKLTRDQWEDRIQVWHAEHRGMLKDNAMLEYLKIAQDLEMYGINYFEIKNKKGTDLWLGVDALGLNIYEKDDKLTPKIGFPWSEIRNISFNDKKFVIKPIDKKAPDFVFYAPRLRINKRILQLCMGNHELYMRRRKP

Row | Binder | dH [1] [kcal/mol] | stoichiometry N [1] | other results
1 | ezrin C-terminal fragment (residues 477-586) (domain or fragment, human, UniProt P15311 477-586, looked up) VYEPVSYHVQESLQDEGAEPTGYSAELSSEGIRDDRNEEKRITEAEKNERVQRQLLTLSSELSQARDENKRTHNDIIHNENMRQGRDKYKTLRQIRQGNTKQRIDEFEAL | – | – | Ka [2]: 1.13e+06 M⁻¹
2 | human Cdc42C188S, GDP-bound (natural protein) not shown | – | – | Ka (human RhoGDI): 55700 ± 940 M⁻¹; dH (human RhoGDI): -13.29 ± 0.08 kcal/mol; stoichiometry N (human RhoGDI): 0.853 ± 0.0003

Now from value to binder, other results behind:

Row | dH [1] [kcal/mol] | stoichiometry N [1] | Binder | other results
3 | -3.98 ± 0.39 | 1.33 ± 0.0688 | IQGAP2 Repeats (IQGAP2 residues 211-591) (domain or fragment, human, UniProt Q13576 211-591, looked up) EAALHAAVIAINEAVEKGIAEQTVVTLRNPNAVLTLVDDNLAPEYQKELWDAKKKKEENARLKNSCISEEERDAYEELLTQAEIQGNINKVNRQAAVDHINAVIPEGDPENTLLALKKPEAQLPAVYPFAAAMYQNELFNLQKQNTMNYLAHEELLIAVEMLSAVALLNQALESNDLVSVQNQLRSPAIGLNNLDKAYVERYANTLLSVKLEVLSQGQDNLSWNEIQNCIDMVNAQIQEENDRVVAVGYINEAIDEGNPLRTLETLLLPTANISDVDPAHAQHYQDVLYHAKSQKLGDSESVSKVLWLDEIQQAVDDANVDKDRAKQWVTLVVDVNQCLEGKKSSDILSVLKSSTSNANDIIPECADKYYDALVKAKELKS | –
4 | -49.1 ± 15.6 | 0.274 ± 0.0243 | IQGAP1 Repeats (IQGAP1 residues 156-672), tag removed (domain or fragment, human, UniProt P46940 156-672, looked up) SLYLFKLGLAPQIQDLYGKVDFTEEEINNMKTELEKYGIQMPAFSKIGGILANELSVDEAALHAAVIAINEAIDRRIPADTFAALKNPNAMLVNLEEPLASTYQDILYQAKQDKMTNAKNRTENSERERDVYEELLTQAEIQGNINKVNTFSALANIDLALEQGDALALFRALQSPALGLRGLQQQNSDWYLKQLLSDKQQKRQSGQTDPLQKEELQSGVDAANSAAQQYQRRLAAVALINAAIQKGVAEKTVLELMNPEAQLPQVYPFAADLYQKELATLQRQSPEHNLTHPELSVAVEMLSSVALINRALESGDVNTVWKQLSSSVTGLTNIEEENCQRYLDELMKLKAQAHAENNEFITWNDIQACVDHVNLVVQEEHERILAIGLINEALDEGDAQKTLQALQIPAAKLEGVLAEVAQHYQDTLIRAKREKAQEIQDESAVLWLDEIQGGIWQSNKDTQEAQKFALGIFAINEAVESGDVGKTLSALRSPDVGLYGVIPECGETYHSDLAEAK | –

Source: PMC3975686 (Journal of proteome research, 2013)
